This assay addresses diffusible Aβ aggregates from postmortem frontal cortex of AD patients (human (endogenous in postmortem frontal cortex)). Put plainly: single-molecule pull-down (SiMPull); soaked-brain extracts (neat) of frontal cortex of APOE4/4 and APOE3/3 AD patients; captured by biotinylated 6E10; detected with Alexa-Fluor-647 6E10 and Alexa-Fluor-488 EPR19392; two-colour TIRF, colocalisation.

“apoE3 in frontal-cortex extracts of homozygous APOE3 AD patients (from UniProt P02649 19-317) (natural protein)”: the percent of Aβ aggregates that are co-aggregates (colocalisation by number) was found to be 1%.

“apoE4 in frontal-cortex extracts of homozygous APOE4 AD patients (from UniProt P02649 19-317) (natural protein)” gave a percent of Aβ aggregates that are co-aggregates (colocalisation by number) of 5%.

(Values after publication PMC11144216.)
